B1: SK3-Fc (Fc fusion, human)
VH: QVLVETGGGVVQPGRSLRLSCAASGFTFSSYGMHWVRQAPGKGLEWVAVISYDGDDKDYADSVKGRFTISRDNADSSVFLQMNSLRAEDTALYYCAREGQWVGGALDIWGQGTMVTVSS
VL: DIVMTQSPSTLSASLGDTVTITCRASQSINGWLAWYQQKPGKAPNLLIYQAPNLESGVPSRFSGSGSGTEFTLTINGLQPDDFATYYCQKYDNAPHTFGQGTKVEIK
B2: SK4-Fc (Fc fusion, human)
VH: QVQLVETGGGVVQVGRSLRLSCAASGFTFSHYGMHWVRQAPGKGLEWVSGISWNSDRRGYADSVKGRFTISRDNTKNSLYLQMNSLRAEDTAVYYCVREFYDAFDIWGQGTMVTVSS
VL: DIQMTQSPSSLPAYVGDRVTISCRASQSIRTYLNWYRQKVGKAPELLVYDASSLHKGVPSRFSASGSGTDFSLTISSLQPEDFATYYCQQSFSSPRTFGQGTKVEIK

Biological target: human FcγRIIb on Huvec-2b cells (Homo sapiens (Human)., UniProt P31994)
Sequence (P31994 43-310): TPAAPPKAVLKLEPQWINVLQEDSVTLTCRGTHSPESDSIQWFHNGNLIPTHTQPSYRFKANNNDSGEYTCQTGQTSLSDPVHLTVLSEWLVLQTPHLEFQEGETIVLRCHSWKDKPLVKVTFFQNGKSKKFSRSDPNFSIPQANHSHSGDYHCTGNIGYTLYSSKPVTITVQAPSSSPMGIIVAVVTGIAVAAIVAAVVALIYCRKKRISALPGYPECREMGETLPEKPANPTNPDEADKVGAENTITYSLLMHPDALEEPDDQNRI
Assay: flow cytometry on cells

Binder | binding result
B1 | binds
B2 | binds
